How the values were obtained:
RA patients = assay: Phase I clinical trial of mucosal tolerization to dnaJP1; format: in vivo, human; conditions: 15 RA patients, by mouth, 6 months
Experimental: FIGS. 26A to 26E show the results of treatment-induced modulation of T cell responses to dnaJP1. […] Evaluation was performed at monthly intervals. Controls included PHA as a general mitogen and dnaJpv (SEQ ID NO:28). Evaluation by FACS at monthly intervals of intracellular cytokine production (pro-inflammatory—FIGS. 26 B, C and D; toleragenic—FIG. 26E) by PBMC of the patients who were responsive at the screening. Results are expressed as % CD3+ cells in dnaJP1 stimulated/unstimulated cultures.
In the Phase I clinical trial, 15 RA patients were treated with three different doses of dnaJP1 (four times per day, by mouth) for 6 months. Entry criteria required clinically active disease and pro-inflammatory T cell responsiveness in vitro to the peptide.

[1] = test system: SFMC from patients with oJIA; assay: Proliferative response of SFMC incubated with dnaJ and restimulated with autologous feeder cells plus peptide; format: cell-based, human; conditions: persistent n=16, extended n=15; p=0.05
Experimental: Results, expressed as stimulation index (SI), are shown as mean+SD.
In order to identify possible relevant epitopes on the bacterial dnaJ protein, PBMC and SFMC of patients with oJIA were incubated for 72 hr with dnaJ, and restimulated with autologous feeder cells the in presence or absence of selected E. coli derived MHC class II binder peptides for 96 hr.
(§1) In order to evaluate whether human homologous peptides could be the target of cross-recognition leading to self reactivity, human peptides derived from regions of HSJ1, HDJ1, or HDJ2 having sequence homology with E. coli dnaJ were studied. SFMC of 14 patients with oJIA presenting a SI to the recombinant E. coli hsp dnaJ greater than 3 were restimulated for 96 hr with autologous cells in presence or absence of human peptide 2, 3, or 5, which are homologs of bacterial peptide 4; human peptide 20, 21, or 23, which are homologs of bacterial peptide 22; or human peptide 164, 167, or 176, which are homologs of bacterial peptide 174. SFMC proliferative responses, pro-inflammatory cytokine production, and anti-inflammatory IL-4 levels were overall similar between the peptides derived from human dnaJ proteins and the homologous bacterial peptides.
Results are expressed as SI or pg/ml (mean+SD). […]
To explore the possible correlation of clinical features with the development of peptide-induced immune modulation, oJIA patients were grouped according to the course of disease, including those with persistent disease (n=16), and those with extended disease (n=15) o-JIA. (FIG. 25).

[2] = test system: SFMC from patients with oJIA; assay: Cytokine production in culture supernatants of SFMC incubated with dnaJ and restimulated with autologous feeder cells plus peptide; format: cell-based, human
Text: Results are expressed as pg/ml (mean+SD).
Cytokine production to the same peptides was examined in culture supernatants of SFMC from patients with oJIA. […] SFMC from only one of 21 patients with oJIA produced detectable levels of the anti-inflammatory cytokine IL-10, and none produced detectable levels of IL-4.
as §1
Results are expressed as SI or pg/ml (mean+SD).

[3] = test system: SFMC from patients with persistent oJIA; assay: FACS analysis of CTLA+/CD25/CD4 positive cells after peptide stimulation; format: cell-based, human; conditions: FIG. 24A
Text: “TC” indicates tissue culture not stimulated. Bars represent SD.
FACS analysis was used to evaluate the percent of CTLA+/CD25/CD4 positive cells following stimulation of representative SFMC from patients with persistent oJIA with non-homologous human peptide 134. The % of CTLA+/CD25/CD4 positive cells, which are believed to have a regulatory function, was higher in the peptide treated cells as compared to cells maintained under control conditions (FIG. 24A). Expansion of the regulatory cells in response to peptide 134 correlated well with production of IL-10 in the same culture conditions (FIG. 24B).

[4] = test system: peripheral blood mononuclear cells (PBMC); assay: Proliferative response (stimulation index) of PBMC stimulated with antigen for 96 hr; format: cell-based, human; conditions: 10 healthy subjects vs 21 patients with oJIA
[5] = test system: synovial fluid mononuclear cells (SFMC) from patients with oJIA; assay: Proliferative response (stimulation index) of SFMC stimulated with antigen for 96 hr; format: cell-based, human; conditions: for ratio SI SFMC/SI PBMC, dnaJ compared with TT: paired PBMC-SFMC samples from oJIA patients
[6] = test system: CD3+CD69+ cells in PBMC and SFMC; assay: Evaluation of activated CD3+CD69+ T cells after incubation with recombinant E. coli hsp dnaJ; format: cell-based, human; conditions: p=0.0002
Experimental: FIG. 1B provides an evaluation of CD69+ T cells from healthy subjects (CTRL) and patients with oJIA following 72 hour incubation with recombinant E. coli hsp dnaJ. Results, expressed as percentage CD3+CD69+ cells, are shown as mean+SD.
To evaluate whether dnaJ-specific T cells were enriched at the synovial sites of inflammation, synovial fluid mononuclear cells (SFMC) from all patients with oJIA were stimulated with dnaJ for 96 hr.

[7] = test system: PBMC and SFMC from healthy controls and patients with oJIA; assay: Cytokine production in culture supernatants of PBMC or SFMC stimulated with recombinant E. coli hsp dnaJ for 72 hr; format: cell-based, human
Experimental: Results, expressed as pg/ml, are shown as mean+SD.
The production of the pro-inflammatory cytokines interferon-gamma (IFNγ) and tumor necrosis factor-alpha (TNFα), and the anti-inflammatory cytokines interleukin-4 (IL-4) and IL-10 was evaluated in culture supernatants of PBMC from healthy controls and in PBMC-SFMC paired samples from patients with oJIA incubated for 72 hr with or without dnaJ.

QKRAAYDQYGHAAFE (listed as Escherichia coli) [dnaJP1]
treatment-induced change of T cell cytokine responses (RA patients): dramatic immune deviation from pro-inflammatory to regulatory-type cytokines

SGPFFTFSSSFPGHS (listed as Homo sapiens) [Peptide 134, non-homologous human peptide (HSJ1)]
Proliferative responses, extended disease vs persistent o-JIA [1]: significantly lower
IL-10 production, extended disease vs persistent o-JIA ([2]; p=0.0012): highly significant difference
IFN production, extended disease vs persistent o-JIA ([2]; p=0.076): border line level of statistical significance
% of CTLA+/CD25/CD4 positive cells vs control conditions [3]: higher

B1: dnaJ: recombinant E. coli heat shock protein dnaJ (protein, UniProt P08622 2-376, looked up)
Chaperone protein DnaJ: AKQDYYEILGVSKTAEEREIRKAYKRLAMKYHPDRNQGDKEAEAKFKEIKEAYEVLTDSQKRAAYDQYGHAAFEQGGMGGGGFGGGADFSDIFGDVFGDIFGGGRGRQRAARGADLRYNMELTLEEAVRGVTKEIRIPTLEECDVCHGSGAKPGTQPQTCPTCHGSGQVQMRQGFFAVQQTCPHCQGRGTLIKDPCNKCHGHGRVERSKTLSVKIPAGVDTGDRIRLAGEGEAGEHGAPAGDLYVQVQVKQHPIFEREGNNLYCEVPINFAMAALGGEIEVPTLDGRVKLKVPGETQTGKLFRMRGKGVKSVRGGAQGDLLCRVVVETPVGLNERQKQLLQELQESFGGPTGEHNSPRSKSFFDGVKKFFDDLTR
Proliferative responses of PBMC, healthy subjects vs oJIA patients [4]: not significantly different
mean stimulation index (SI) of SFMC vs corresponding PBMC ([5]; oJIA patients, 96 hr, p=0.01): significantly higher
ratio SI SFMC/SI PBMC, dnaJ compared with TT [5]: significantly (p=0.038) higher
ratio SI SFMC/SI PBMC, dnaJ compared with TT ([5]; listed as recombinant dnaJ): significantly (p<0.02) greater
percentage of activated T cells (CD3+CD69+ cells), SFMC with respect to PBMC [6]: significantly higher
cytokine production from PBMC of patients and controls ([7]; 72 hr): no difference
IL-4 levels ([7]; controls and patients, supernatants from PBMC and SFMC): below the detection limit
IL-10 production, SFMC vs PBMC ([7]; oJIA patients, 72 hr): comparable in the two compartments
TNFα production, SFMC vs PBMC ([7]; oJIA patients, 72 hr): comparable in the two compartments
IFNγ production, SFMC vs PBMC ([7]; oJIA patients, 72 hr, p<0.01): significantly higher production
